In patent US20140030278A1 (published 2014):

Assays:
[1] = molecular target: T1, Recombinant human TNF-alpha (human, UniProt P01375 77-233); assay: ELISA of unbound rhTNF-alpha after pre-incubation; printed as 4.095e-009 g/ml
[2] = molecular target: T1, Recombinant human TNF-alpha; assay: ELISA of unbound rhTNF-alpha after pre-incubation; printed as 6.116e-009 g/ml

T1 sequence (P01375 77-233): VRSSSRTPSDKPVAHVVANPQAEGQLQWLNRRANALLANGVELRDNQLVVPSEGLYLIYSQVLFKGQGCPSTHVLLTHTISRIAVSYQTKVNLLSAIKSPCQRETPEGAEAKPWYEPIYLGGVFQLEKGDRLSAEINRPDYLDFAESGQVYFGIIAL

| Binder | IC50 [1] [ng/mL] | IC50 [2] [ng/mL] |
| --- | --- | --- |
| etanercept (ENBREL®), non-PEGylated (Fc fusion) LPAQVAFTPYAPEPGSTCRLREYYDQTAQMCCSKCSPGQHAKVFCTKTSDTVCDSCEDSTYTQLWNWVPECLSCGSRCSSDQVETQACTREQNRICTCRPGWYCALSKQEGCRLCAPLRKCRPGFGVARPGTETSDVVCKPCAPGTFSNTTSSTDICRPHQICNVVAIPGNASMDAVCTSTSPTRSMAPGAVHLPQPVSTRSQHTQPTPEPSTAPSTSFLLPMGPSPPAEGSTGDEPKSCDKTHTCPPCPAPELLGGPSVFLFPPKPKDTLMISRTPEVTCVVVDVSHEDPQVKFNWYVDGVQVHNAKTKPREQQYNSTYRVVSVLTVLHQNWLDGKEYKCKVSNKALPAPIEKTISKAKGQPREPQVYTLPPSREEMTKNQVSLTCLVKGFYPSDIAVEWESNGQPENNYKTTPPVLDSDGSFFLYSKLTVDKSRWQQGNVFSCSVMHEALHNHYTQKSLSLSPGK | 4.09 |  |
| PEG20-etanercept (10 eq) (Fc fusion, 20 KDa PEG (PEG20) conjugated via NHS-ester PEG reagent at 10 times molar excess; sites not stated) LPAQVAFTPYAPEPGSTCRLREYYDQTAQMCCSKCSPGQHAKVFCTKTSDTVCDSCEDSTYTQLWNWVPECLSCGSRCSSDQVETQACTREQNRICTCRPGWYCALSKQEGCRLCAPLRKCRPGFGVARPGTETSDVVCKPCAPGTFSNTTSSTDICRPHQICNVVAIPGNASMDAVCTSTSPTRSMAPGAVHLPQPVSTRSQHTQPTPEPSTAPSTSFLLPMGPSPPAEGSTGDEPKSCDKTHTCPPCPAPELLGGPSVFLFPPKPKDTLMISRTPEVTCVVVDVSHEDPQVKFNWYVDGVQVHNAKTKPREQQYNSTYRVVSVLTVLHQNWLDGKEYKCKVSNKALPAPIEKTISKAKGQPREPQVYTLPPSREEMTKNQVSLTCLVKGFYPSDIAVEWESNGQPENNYKTTPPVLDSDGSFFLYSKLTVDKSRWQQGNVFSCSVMHEALHNHYTQKSLSLSPGK |  | 6.12 |
